According to patent publication US20220211798A1, “THERAPY GUIDANCE AND/OR THERAPY MONITORING FOR A TREATMENT WITH ANGIOTENSIN-RECEPTOR-AGONIST AND/OR A PRECURSOR THEREOF” (4TEEN4 PHARMACEUTICALS GMBH, priority 2018, published 2022):
“Also recorded” adds a separate entry of the source.

Assays:
[1] = test system: healthy Black 6 mice injected with DPP3; assay: Effect of Valsartan in healthy mice injected with DPP3; assay type: in vivo
Procedure: The effect of an antagonist for the type I angiotensin II receptor (ATR1), Valsartan, in healthy mice injected with DPP3 was studied by monitoring the shortening fraction. In this experiment, healthy Black 6 mice (8-12 weeks, group size refer to table 8) consumed water with 50 mg/kg Valsartan per day or just water (Table 8) for a period of two weeks. Subsequently, both groups received an intravenous injection of native DPP3 (600 μg/kg) and the shortening fraction was assessed according to Gao et al., 2011 at 15, 60 and 120 minutes (FIG. 12).

[2] = test system: Patients with vasodilatory shock; conditions: vasodilatory shock (80% in septic shock); cited from earlier work
Wild type Black 6 mice = assay: Effect of native DPP3 injection in healthy mice; assay type: in vivo; conditions: 600 μg/kg intravenously, compared to PBS control
Procedure: The effect of native hDPP3 injection in healthy mice was studied by monitoring the shortening fraction and renal resistive index.
Wild type Black 6 mice (8-12 weeks, group size refer to table 3) were acclimated during 2 weeks and a baseline echocardiography was done. The mice were randomly allocated to one of the two groups and, subsequently, native DPP3 protein or PBS were injected intravenously via a retro-orbital injection with a dose of 600 μg/kg for DPP3 protein.
After DPP3 or PBS injection, cardiac function was assessed by echocardiography (Gao et al. 2011) and renal function assessed by renal resistive index (Lubas et al., 2014, Dewitte et al, 2012) at 15, 60 and 120 minutes (FIG. 3).

normotensive mice = conditions: cited from earlier work
[3] = test system: AngII-infused hypertensive mice; conditions: cited from earlier work

In the case of `CCCCC(=O)N(Cc1ccc(-c2ccccc2-c2nnn[nH]2)cc1)[C@H](C(=O)O)C(C)C` [Valsartan], the “shortening fraction after DPP3 injection” value ([1]; 50 mg/kg Valsartan per day in water for two weeks, then native DPP3 600 μg/kg intravenous) is reported as “rescued; also recorded: no signs of heart dysfunction”.

In the case of “Asp-Arg-Val-Tyr-Ile-His-Pro-Phe (DRVYIHPF; listed as Homo sapiens) [angiotensin II]”, the hypotension [2] is listed as “significant correction of hypotension” and the “survival to 28 days” value [2] is listed as “more likely to survive to 28 days”.

B1: native DPP3: native human Dipeptidyl peptidase 3 purified from human erythrocyte lysate (protein)
chain: ADTQYILPNDIGVSSLDCREAFRLLSPTERLYAYHLSRAAWYGGLAVLLQTSPEAPYIYALLSRLFRAQDPDQLRQHALAEGLTEEEYQAFLVYAAGVYSNMGNYKSFGDTKFVPNLPKEKLERVILGSEAAQQHPEEVRGLWQTCGELMFSLEPRLRHLGLGKEGITTYFSGNCTMEDAKLAQDFLDSQNLSAYNTRLFKEVDGEGKPYYEVRLASVLGSEPSLDSEVTSKLKSYEFRGSPFQVTRGDYAPILQKVVEQLEKAKAYAANSHQGQMLAQYIESFTQGSIEAHKRGSRFWIQDKGPIVESYIGFIESYRDPFGSRGEFEGFVAVVNKAMSAKFERLVASAEQLLKELPWPPTFEKDKFLTPDFTSLDVLTFAGSGIPAGINIPNYDDLRQTEGFKNVSLGNVLAVAYATQREKLTFLEEDDKDLYILWKGPSFDVQVGLHELLGHGSGKLFVQDEKGAFNFDQETVINPETGEQIQSWYRSGETWDSKFSTIASSYEECRAESVGLYLCLHPQVLEIFGFEGADAEDVIYVNWLNMVRAGLLALEFYTPEAFNWRQAHMQARFVILRVLLEAGEGLVTITPTTGSDGRPDARVRLDRSKIRSVGKPALERFLRRLQVLKSTGDVAGGRALYEGYATVTDAPPECFLTLRDTVLLRKESRKLIVQPNTRLEGSDVQLLEYEASAAGLIRSFSERFPEDGPELEEILTQLATADARFWKGPSEAPSGQA
With B1 the “renal resistive index (renal function)” value (Wild type Black 6 mice) was “renal resistive index increase”, the shortening fraction (Wild type Black 6 mice) was “significantly reduced shortening fraction” and the “renal resistive index (renal function)” value (Wild type Black 6 mice; listed as DPP3) was “increased renal resistive index”. The shortening fraction (Wild type Black 6 mice; listed as DPP3) was “shortening fraction reduction”, the blood pressure (normotensive mice) was “no alteration in blood pressure” and the blood pressure [3] was “reduced blood pressure”. For the same molecule, the heart rate [3] was “without changing heart rate” and the shortening fraction ([1]; native DPP3 600 μg/kg intravenous, mice on water without Valsartan) was “significant decrease in the shortening fraction”.
